Experimental data taken from US20210388087A1 (Chugai, published 2021).
Changes are numbered by the printed parent chain. In names and notes the source's numbering stands. Blank lines part the entries; values can stand above or below the binder they belong to.

Target: T1, Human CD3eg linker (human)
T1 construct: Single-chain construct; also called recombinant human CD3
T1 chain: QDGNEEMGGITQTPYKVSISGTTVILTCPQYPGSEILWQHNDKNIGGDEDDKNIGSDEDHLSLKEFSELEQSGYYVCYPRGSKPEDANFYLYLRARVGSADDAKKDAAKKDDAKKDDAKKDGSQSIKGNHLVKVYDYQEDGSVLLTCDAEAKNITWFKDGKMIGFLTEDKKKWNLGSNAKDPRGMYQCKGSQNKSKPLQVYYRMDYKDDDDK
Experiment: SPR; fold vs parent H183/L072

fold change of affinity: 2.9 fold
B2: H183/L072 VL P56H (antibody, name in Kabat numbering, V domains shown)
VH: QVQLVESGGGLVQPGRSLRLSCAASGFTFSNAWMHWVRQAPGKGLEWVAQIKDKGNAYAAYYAPSVKGRFTISRDDSKNSIYLQMNSLKTEDTAVYYCHYVHYASASTVLPAFGVDAWGQGTTVTVSS
VL: DIVMTQSPLSLPVTPGEPASISCQASQELVHMNRNTYLHWYQQKPGQAPRLLIYKVSNRFHGVPDRFSGSGSGTDFTLKISRVEAEDVGVYYCAQGTSVPFTFGQGTKLEIK

fold change of affinity: 0 fold
B5: H183/L072 VL P95H (antibody, name in Kabat numbering, V domains shown)
VH: B2 VH
VL: B2 VL with H61P, P100H

fold change of affinity: 3.9 fold
B7: H183/L072 VL P56T (antibody, name in Kabat numbering, V domains shown)
VH: B2 VH
VL: B2 VL with H61T

fold change of affinity: 3.1 fold
B8: H183/L072 VL P56L (antibody, name in Kabat numbering, V domains shown)
VH: B2 VH
VL: B2 VL with H61L

fold change of affinity: 0 fold
B10: H183/L072 VL P95T (antibody, name in Kabat numbering, V domains shown)
VH: B2 VH
VL: B2 VL with H61P, P100T

fold change of affinity: 1.1 fold
B15: H183/L072 VL Q24S (antibody, name in Kabat numbering, V domains shown)
VH: B2 VH
VL: B2 VL with Q24S, H61P

fold change of affinity: 1 fold
B16: H183/L072 VL Q24Y (antibody, name in Kabat numbering, V domains shown)
VH: B2 VH
VL: B2 VL with Q24Y, H61P

fold change of affinity: 0 fold
B17: H183/L072 VL P95Q (antibody, name in Kabat numbering, V domains shown)
VH: B2 VH
VL: B2 VL with H61P, P100Q

fold change of affinity: 3.4 fold
B18: H183/L072 VL P56E (antibody, name in Kabat numbering, V domains shown)
VH: B2 VH
VL: B2 VL with H61E

fold change of affinity: 1.1 fold
B20: H183/L072 VL Q24A (antibody, name in Kabat numbering, V domains shown)
VH: B2 VH
VL: B2 VL with Q24A, H61P

fold change of affinity: 1 fold
B23: H183/L072 VL Q24R (antibody, name in Kabat numbering, V domains shown)
VH: B2 VH
VL: B2 VL with Q24R, H61P

fold change of affinity: 3.3 fold
B24: H183/L072 VL P56N (antibody, name in Kabat numbering, V domains shown)
VH: B2 VH
VL: B2 VL with H61N

fold change of affinity: 0.7 fold
B25: H183/L072 VL N53W (antibody, name in Kabat numbering, V domains shown)
VH: B2 VH
VL: B2 VL with N58W, H61P

fold change of affinity: 3.3 fold
B28: H183/L072 VL P56F (antibody, name in Kabat numbering, V domains shown)
VH: B2 VH
VL: B2 VL with H61F

fold change of affinity: 1.1 fold
B29: H183/L072 VL Q24W (antibody, name in Kabat numbering, V domains shown)
VH: B2 VH
VL: B2 VL with Q24W, H61P

fold change of affinity: 3.7 fold
B30: H183/L072 VL P56Q (antibody, name in Kabat numbering, V domains shown)
VH: B2 VH
VL: B2 VL with H61Q

fold change of affinity: 3.4 fold
B35: H183/L072 VL P56V (antibody, name in Kabat numbering, V domains shown)
VH: B2 VH
VL: B2 VL with H61V

fold change of affinity: 0 fold
B36: H183/L072 VL P95E (antibody, name in Kabat numbering, V domains shown)
VH: B2 VH
VL: B2 VL with H61P, P100E

fold change of affinity: 3.1 fold
B37: H183/L072 VL P56I (antibody, name in Kabat numbering, V domains shown)
VH: B2 VH
VL: B2 VL with H61I

fold change of affinity: 1.2 fold
B38: H183/L072 VL Q24D (antibody, name in Kabat numbering, V domains shown)
VH: B2 VH
VL: B2 VL with Q24D, H61P

fold change of affinity: 1.2 fold
B40: H183/L072 VL Q24L (antibody, name in Kabat numbering, V domains shown)
VH: B2 VH
VL: B2 VL with Q24L, H61P

fold change of affinity: 3.9 fold
B43: H183/L072 VL P56M (antibody, name in Kabat numbering, V domains shown)
VH: B2 VH
VL: B2 VL with H61M

Second part, the binder before the results:

B1: H183/L072 VL N53S (antibody, name in Kabat numbering, V domains shown)
VH: B2 VH
VL: B2 VL with N58S, H61P
fold change of affinity: 0.9 fold

B3: H183/L072 VL N53T (antibody, name in Kabat numbering, V domains shown)
VH: B2 VH
VL: B2 VL with N58T, H61P
fold change of affinity: 0.4 fold

B4: H183/L072 VL P56D (antibody, name in Kabat numbering, V domains shown)
VH: B2 VH
VL: B2 VL with H61D
fold change of affinity: 3 fold

B6: H183/L072 VL Q24M (antibody, name in Kabat numbering, V domains shown)
VH: B2 VH
VL: B2 VL with Q24M, H61P
fold change of affinity: 1.1 fold

B9: H183/L072 VL P56K (antibody, name in Kabat numbering, V domains shown)
VH: B2 VH
VL: B2 VL with H61K
fold change of affinity: 5.6 fold

B11: H183/L072 VL Q24H (antibody, name in Kabat numbering, V domains shown)
VH: B2 VH
VL: B2 VL with Q24H, H61P
fold change of affinity: 1.1 fold

B12: H183/L072 VL Q24G (antibody, name in Kabat numbering, V domains shown)
VH: B2 VH
VL: B2 VL with Q24G, H61P
fold change of affinity: 1.2 fold

B13: H183/L072 VL Q24F (antibody, name in Kabat numbering, V domains shown)
VH: B2 VH
VL: B2 VL with Q24F, H61P
fold change of affinity: 0.9 fold

B14: H183/L072 VL P56A (antibody, name in Kabat numbering, V domains shown)
VH: B2 VH
VL: B2 VL with H61A
fold change of affinity: 4.1 fold

B19: H183/L072 VL Q24T (antibody, name in Kabat numbering, V domains shown)
VH: B2 VH
VL: B2 VL with Q24T, H61P
fold change of affinity: 1.1 fold

B21: H183/L072 VL P56W (antibody, name in Kabat numbering, V domains shown)
VH: B2 VH
VL: B2 VL with H61W
fold change of affinity: 3 fold

B22: H183/L072 VL P56S (antibody, name in Kabat numbering, V domains shown)
VH: B2 VH
VL: B2 VL with H61S
fold change of affinity: 4.1 fold

B26: H183/L072 VL Q24V (antibody, name in Kabat numbering, V domains shown)
VH: B2 VH
VL: B2 VL with Q24V, H61P
fold change of affinity: 1.2 fold

B27: H183/L072 VL P95K (antibody, name in Kabat numbering, V domains shown)
VH: B2 VH
VL: B2 VL with H61P, P100K
fold change of affinity: 0 fold

B31: H183/L072 VL Q24N (antibody, name in Kabat numbering, V domains shown)
VH: B2 VH
VL: B2 VL with Q24N, H61P
fold change of affinity: 1.1 fold

B32: H183/L072 VL P95S (antibody, name in Kabat numbering, V domains shown)
VH: B2 VH
VL: B2 VL with H61P, P100S
fold change of affinity: 0 fold

B33: H183/L072 VL P56G (antibody, name in Kabat numbering, V domains shown)
VH: B2 VH
VL: B2 VL with H61G
fold change of affinity: 3.7 fold

B34: H183/L072 VL P95D (antibody, name in Kabat numbering, V domains shown)
VH: B2 VH
VL: B2 VL with H61P, P100D
fold change of affinity: 0 fold

B39: H183/L072 VL N53V (antibody, name in Kabat numbering, V domains shown)
VH: B2 VH
VL: B2 VL with N58V, H61P
fold change of affinity: 0.3 fold

B41: H183/L072 VL Q24K (antibody, name in Kabat numbering, V domains shown)
VH: B2 VH
VL: B2 VL with Q24K, H61P
fold change of affinity: 1 fold

B42: H183/L072 VL P56R (antibody, name in Kabat numbering, V domains shown)
VH: B2 VH
VL: B2 VL with H61R
fold change of affinity: 5.5 fold

B44: H183/L072 VL Q24E (antibody, name in Kabat numbering, V domains shown)
VH: B2 VH
VL: B2 VL with Q24E, H61P
fold change of affinity: 0 fold

B45: H183/L072 VL Q24I (antibody, name in Kabat numbering, V domains shown)
VH: B2 VH
VL: B2 VL with Q24I, H61P
fold change of affinity: 1.2 fold
